Values belong to the substance of their own block, whether it stands above or below them.
Key:
[1] = target: PCM1 V1956D LIR peptide; assay: BLI; biotinylated LIR peptide immobilised on streptavidin biosensors (Octet Red 96), ATG8 protein in solution; 25 mM Tris pH 7.5, 150 mM NaCl, 0.5 mM TCEP, 0.1% Tween-20, 1 mg/ml BSA, 25 °C; Kd from response against concentration, Y=Rmax*X/(Kd+X)
[2] = target: PCM1 LIR peptide (biotinylated, BLI); assay: BLI; biotinylated LIR peptide (50 μg/ml) immobilised on streptavidin biosensor, ATG8 in solution; Octet Red 96; 25 mM Tris pH 7.5, 150 mM NaCl, 0.5 mM TCEP, 0.1% Tween-20, 1 mg/ml BSA; 25 °C; Kd from response against concentration
[3] = target: ULK1 LIR peptide (biotinylated, BLI) (human); assay: as above
[4] = target: PCM1 WT LIR peptide; assay: BLI; biotinylated LIR peptide immobilised on streptavidin biosensors (Octet Red 96), ATG8 protein in solution; 25 mM Tris pH 7.5, 150 mM NaCl, 0.5 mM TCEP, 0.1% Tween-20, 1 mg/ml BSA, 25 °C; Kd from response against concentration, Y=Rmax*X/(Kd+X)
[5] = target: PCM1 K1957I LIR peptide; assay: as above
[6] = target: FIP200 T704I LIR peptide; assay: as above
[7] = target: GFP-GABARAP F60L (human) (UniProt O95166); assay: co-IP; GFP-TRAP beads, lysates of HEK293A cells expressing GFP-GABARAP or GFP-LC3B constructs, TNTE buffer, 2 h at 4 °C; immunoblot of endogenous proteins, quantified
[8] = target: -L1 (recombinant, BLI) (human) (UniProt Q9H0R8); assay: BLI
[9] = target: LC3B (Homo sapiens) (UniProt Q9GZQ8); assay: ITC; conditions: cited from earlier work

GABARAP-L1 (recombinant, BLI), sequence (Q9H0R8 whole entry): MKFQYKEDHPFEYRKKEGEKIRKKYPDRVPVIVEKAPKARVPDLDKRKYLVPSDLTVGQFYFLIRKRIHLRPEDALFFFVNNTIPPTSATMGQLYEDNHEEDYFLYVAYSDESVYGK
-L1 (recombinant, BLI) (human), sequence (Q9H0R8 whole entry): as above
PCM1 LIR peptide mutated at P1962 (X7) (BLI), sequence (Q15154 whole entry, looked up, change not shown, tested part not stated): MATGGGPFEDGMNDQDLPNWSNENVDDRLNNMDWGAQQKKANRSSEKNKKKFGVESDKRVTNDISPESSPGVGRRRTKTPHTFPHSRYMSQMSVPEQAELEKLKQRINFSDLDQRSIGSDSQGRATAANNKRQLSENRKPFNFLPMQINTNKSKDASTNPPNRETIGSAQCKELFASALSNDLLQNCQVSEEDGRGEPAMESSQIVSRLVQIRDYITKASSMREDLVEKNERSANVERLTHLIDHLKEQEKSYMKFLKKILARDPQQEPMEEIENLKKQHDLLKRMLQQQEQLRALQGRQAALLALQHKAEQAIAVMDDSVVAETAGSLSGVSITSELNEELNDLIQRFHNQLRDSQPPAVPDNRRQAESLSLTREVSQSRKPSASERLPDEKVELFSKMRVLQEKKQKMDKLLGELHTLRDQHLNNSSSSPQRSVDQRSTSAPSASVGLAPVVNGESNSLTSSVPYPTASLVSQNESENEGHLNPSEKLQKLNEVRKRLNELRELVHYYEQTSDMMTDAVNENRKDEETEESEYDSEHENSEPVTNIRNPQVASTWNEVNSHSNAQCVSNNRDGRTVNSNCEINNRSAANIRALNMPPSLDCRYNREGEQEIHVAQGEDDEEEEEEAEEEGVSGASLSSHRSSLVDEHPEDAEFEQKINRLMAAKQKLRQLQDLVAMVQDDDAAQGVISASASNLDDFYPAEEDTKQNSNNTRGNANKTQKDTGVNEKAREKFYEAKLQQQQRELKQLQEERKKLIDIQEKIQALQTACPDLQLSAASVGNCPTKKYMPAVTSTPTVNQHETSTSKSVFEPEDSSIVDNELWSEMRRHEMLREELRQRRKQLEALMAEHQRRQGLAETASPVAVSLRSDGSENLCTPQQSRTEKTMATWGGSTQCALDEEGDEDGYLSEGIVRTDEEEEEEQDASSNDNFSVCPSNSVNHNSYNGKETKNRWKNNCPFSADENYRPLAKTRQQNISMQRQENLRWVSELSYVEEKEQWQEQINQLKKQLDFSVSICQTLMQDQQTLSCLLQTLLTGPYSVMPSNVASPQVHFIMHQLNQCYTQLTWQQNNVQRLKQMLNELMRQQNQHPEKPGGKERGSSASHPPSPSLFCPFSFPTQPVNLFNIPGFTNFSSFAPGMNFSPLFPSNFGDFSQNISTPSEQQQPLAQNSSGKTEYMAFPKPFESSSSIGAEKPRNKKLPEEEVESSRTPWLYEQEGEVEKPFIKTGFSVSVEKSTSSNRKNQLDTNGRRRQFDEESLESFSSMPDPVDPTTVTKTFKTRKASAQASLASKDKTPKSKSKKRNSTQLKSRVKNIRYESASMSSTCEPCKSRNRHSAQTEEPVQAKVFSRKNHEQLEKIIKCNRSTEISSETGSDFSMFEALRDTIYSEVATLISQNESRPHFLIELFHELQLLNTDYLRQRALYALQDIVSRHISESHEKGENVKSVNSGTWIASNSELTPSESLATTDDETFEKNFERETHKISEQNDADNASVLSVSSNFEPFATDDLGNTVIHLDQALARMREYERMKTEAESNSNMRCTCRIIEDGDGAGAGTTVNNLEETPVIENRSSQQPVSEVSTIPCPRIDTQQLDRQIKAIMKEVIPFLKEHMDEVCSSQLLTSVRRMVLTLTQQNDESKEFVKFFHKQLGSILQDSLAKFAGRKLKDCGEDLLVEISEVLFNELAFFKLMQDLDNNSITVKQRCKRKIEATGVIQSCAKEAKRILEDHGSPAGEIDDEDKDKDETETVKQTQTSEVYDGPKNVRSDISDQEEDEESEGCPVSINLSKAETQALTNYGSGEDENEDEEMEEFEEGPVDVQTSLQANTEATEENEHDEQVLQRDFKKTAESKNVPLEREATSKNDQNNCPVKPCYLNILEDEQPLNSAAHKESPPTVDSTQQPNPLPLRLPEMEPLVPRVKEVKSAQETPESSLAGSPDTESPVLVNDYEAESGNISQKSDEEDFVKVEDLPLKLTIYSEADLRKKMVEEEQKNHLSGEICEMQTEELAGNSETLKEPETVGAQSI

Substance: GABARAP (from UniProt O95166 1-117) (natural protein)
Kd [1]: 7.72 µM

Substance: GABARAP K24Q (from UniProt O95166 1-117) (natural protein)
Kd [4]: 16.6 µM

Substance: GABARAP Y25H (from UniProt O95166 1-117) (natural protein)
Kd [4]: 11.5 µM

Substance: GABARAP-L1 (recombinant, BLI) (from UniProt Q9H0R8 1-117) (natural protein)
Kd [2]: 1600 nM | Kd [3]: 48 nM

Substance: LC3A (from UniProt Q9H492 1-121) (natural protein)
Kd [5]: 3930 nM

Substance: PCM1 LIR peptide mutated at P1962 (X7) (BLI) (from UniProt Q15154)
Kd [8]: 880 nM

Substance: p62 LIR (from UniProt Q13501)
Kd [9]: 3.2 µM

The next lines start with the values.

Kd [2]: 2000 nM | Kd [3]: 50 nM
Substance: GABARAP (recombinant, BLI) (from UniProt O95166 1-117) (natural protein)

Kd [4]: 250 µM
Substance: GABARAP K24Q/Y25H/Q59E/F60L (from UniProt O95166 1-117) (natural protein)

Kd [4]: 66 µM
Substance: GABARAP K24Q/Y25H/R28K (from UniProt O95166 1-117) (natural protein)

Kd [5]: 384 nM | Kd [6]: 2000 nM
Substance: LC3C (from UniProt Q9BXW4 1-126) (natural protein)

percent reduction of interaction against WT GABARAP [7]: 90%
Substance: PCM1 (pericentriolar material 1), Q15154-5 1-2016
